Data from article PMC2999460, “Porphobilinogen Synthase from the Butterfly, Pieris brassicae: Purification and Comparative Characterization” (2007).

Legend:
[1] = target: porphobilinogen synthase (PBGS) from Pieris brassicae (Pieris brassicae (endogenous in adult insects)); assay: native gel or EMSA; native PAGE at 4.5, 6.0, 7.5 and 9.75% polyacrylamide (Hedrick and Smith; buffer system of Davis) with reference proteins: 292.3 kDa for the holoenzyme, set against 36.5 kDa for the subunit by SDS/urea-PAGE; purified PBGS and a partially purified preparation
[2] = target: T1, porphobilinogen synthase (PBGS) (Pieris brassicae, UniProt A0A9P0XHI4); assay: biochemical
T1 construct: gene PIBRA_LOCUS11261
T1 sequence (A0A9P0XHI4 1-333): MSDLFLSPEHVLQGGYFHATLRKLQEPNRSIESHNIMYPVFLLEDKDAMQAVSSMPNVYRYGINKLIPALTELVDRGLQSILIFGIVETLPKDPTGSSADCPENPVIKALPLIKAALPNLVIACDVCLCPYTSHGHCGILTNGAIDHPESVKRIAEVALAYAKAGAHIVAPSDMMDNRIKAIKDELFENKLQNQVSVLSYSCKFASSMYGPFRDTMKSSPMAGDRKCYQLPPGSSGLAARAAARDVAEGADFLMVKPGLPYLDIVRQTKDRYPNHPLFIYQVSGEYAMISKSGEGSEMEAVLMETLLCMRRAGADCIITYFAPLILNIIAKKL

[3] = target: T1, porphobilinogen synthase (PBGS); assay: enzyme activity assay (PBG formation, Ehrlich's reagent, […] nm), Lineweaver-Burk analysis; type: biochemical
purified protein = substrate: NCC(=O)CCC(=O)O; assay: purified protein; details: zinc active site

Molecule: porphobilinogen synthase (PBGS) from Pieris brassicae (enzyme)
- stoichiometry N [1]: 8

Molecule: CC(=O)CCC(=O)O [LA, levulinic acid]
- Ki [2]: 340 µM

Molecule: CC(=O)CC(=O)CCC(=O)O [SA, 4,6-dioxo-heptanoic acid]
- IC50 [3]: 4.5 µM

B1: porphobilinogen synthase (PBGS) (Pieris brassicae) (protein)
chain: T1 sequence (A0A9P0XHI4 1-333)
- Km (purified protein): 360 µM
